First the molecules themselves.
B1: huAb15v1 (antibody, V domains shown)
VH: EVQLVESGGGVVQPGRSLRLSCAASGFTFSDYTMAWVRQAPGKGLEWVATIIYSGRGTYYRDAVKGRFTISRDNSKSTLYLQMNSLRAEDTAVYYCARQSDHTYYYWGYFDYWGQGTMVTVSS
VL: DIVMTQSPDSLAVSLGERATINCKSSQSLLFSGNQKNYLAWYQQKPGQSPKLLIYWASTRQSGVPDRFSGSGSGTDFTLTIRSLQAEDVAIYYCQQYYDVPYTFGQGTKLEIK
B2: huAb15v4 (antibody, V domains shown)
VH: B1 VH with S54T, H102D
VL: B1 VL
B3: huAb15v6 (antibody, V domains shown)
VH: B1 VH with S54D, G55A, H102D
VL: B1 VL with D99S, V100S
B4: huAb15v3 (antibody, V domains shown)
VH: B1 VH with H102D
VL: B1 VL with D99G, V100S
B5: huAb15v2 (antibody, V domains shown)
VH: B1 VH with H102D
VL: B1 VL
B6: huAb15v7 (antibody, V domains shown)
VH: B1 VH with S54D, G55A, H102D
VL: B1 VL with D99G, V100S
B7: huAb15v5 (antibody, V domains shown)
VH: B1 VH with S54T, H102D
VL: B1 VL with D99S, V100S

Substitutions are numbered along the chain they refer to.

The first series deals with T1, human CD98 (Homo sapiens, UniProt P08195).
T1 sequence (P08195 1-630 isoform P08195-1): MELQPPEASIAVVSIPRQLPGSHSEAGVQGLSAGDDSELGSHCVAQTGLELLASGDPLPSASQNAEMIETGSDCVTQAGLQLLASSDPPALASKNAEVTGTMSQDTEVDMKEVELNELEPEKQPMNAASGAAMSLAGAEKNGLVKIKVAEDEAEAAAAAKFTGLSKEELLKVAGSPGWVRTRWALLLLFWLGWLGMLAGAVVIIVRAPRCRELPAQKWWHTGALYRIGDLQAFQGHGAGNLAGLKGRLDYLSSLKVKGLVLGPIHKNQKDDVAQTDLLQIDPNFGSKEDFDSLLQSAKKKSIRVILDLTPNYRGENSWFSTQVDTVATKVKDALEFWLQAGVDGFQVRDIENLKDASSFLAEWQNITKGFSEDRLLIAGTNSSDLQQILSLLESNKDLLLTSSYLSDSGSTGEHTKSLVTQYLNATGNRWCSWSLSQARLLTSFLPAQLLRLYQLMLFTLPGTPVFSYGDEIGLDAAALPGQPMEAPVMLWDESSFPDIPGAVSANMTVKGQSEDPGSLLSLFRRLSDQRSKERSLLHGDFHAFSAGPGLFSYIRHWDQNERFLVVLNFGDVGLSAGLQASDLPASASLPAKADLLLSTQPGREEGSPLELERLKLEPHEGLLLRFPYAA
Put plainly: Binding of humanized antibodies to human CD98. Conditions: humanized variants of chAb3 and chAb15.
B1: the “binding to human CD98” value is given as “maintained binding”.

B2: the “binding to human CD98” value is “maintained binding”.

In the case of B3, the “binding to human CD98” value was “maintained binding”.

In the case of B4, the “binding to human CD98” value is on record as “maintained binding”.

For B5, the “binding to human CD98” value is “maintained binding”.

Consider B6, for which the “binding to human CD98” value is reported as “maintained binding”.

As for B7, the “binding to human CD98” value is recorded as “maintained binding”.

The next series concerns cynomolgus monkey CD98 ECD. Description: Biacore surface plasmon resonance binding kinetics (anti-Fc capture). Conditions: cyCD98 ECD. The procedure: (§1) The binding kinetics of these purified mouse and rat monoclonal anti-CD98 antibodies for purified recombinant CD98 protein (extracellular domain, ECD) were determined by surface plasmon resonance-based measurements made on Biacore T100/T200 instruments (GE Healthcare, Piscataway, N.J.) at 25° C. using an anti-Fc capture assay approach. Binding kinetic measurements were made in the assay buffer HBS-EP+: 10 mM Hepes, pH 7.4, 150 mM NaCl, 3 mM EDTA, 0.05% Tween 20). For example, approximately 8000 RU of anti-Fc (species specific) polyclonal antibody (Thermo Fisher Scientific Inc., Rockford, Ill.) diluted in 10 mM sodium acetate (pH 4.5) was directly immobilized across a CM5 research grade biosensor chip using a standard amine coupling kit according to manufacturer's instructions and procedures at 25 μg/ml. Unreacted moieties on the biosensor surface were blocked with ethanolamine. The test antibody to be captured as a ligand was diluted in running buffer to ˜0.5 μg/mL and injected over anti-Fc surface at a flow rate of 10 μL/min. CD98 binding and dissociation were observed under a continuous flow rate of 80 μL/min. Human and cynomolgus monkey CD98 ECDs, both with a C-terminal His-tag, are used for this study (Table 3). After each cycle the anti-Fc capture surface was regenerated using 10 mM Glycine-HCl, pH 1.5. During the assay, all measurements were referenced against the capture surface alone (i.e., with no captured test antibody) and buffer-only injections (no antigen) were used for double referencing. For kinetic analysis, rate equations derived from the 1:1 Langmuir binding model were fitted simultaneously, globally and with mass transfer term included to multiple referenced antigen binding curves using Biacore T100/T200 Evaluation software.
Sequence of cynomolgus monkey CD98 ECD (as listed by the source): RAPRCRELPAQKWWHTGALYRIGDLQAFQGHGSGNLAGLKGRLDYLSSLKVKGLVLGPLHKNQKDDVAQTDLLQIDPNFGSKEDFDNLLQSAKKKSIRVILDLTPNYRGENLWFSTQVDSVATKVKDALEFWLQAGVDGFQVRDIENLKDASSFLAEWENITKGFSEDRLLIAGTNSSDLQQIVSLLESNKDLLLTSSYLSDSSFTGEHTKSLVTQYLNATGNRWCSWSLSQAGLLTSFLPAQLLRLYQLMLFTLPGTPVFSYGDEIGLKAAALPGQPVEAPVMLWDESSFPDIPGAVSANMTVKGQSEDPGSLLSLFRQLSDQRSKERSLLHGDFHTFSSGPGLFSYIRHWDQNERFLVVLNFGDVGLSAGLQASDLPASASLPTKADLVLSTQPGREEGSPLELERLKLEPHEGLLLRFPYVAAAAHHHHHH
(§2) The in vitro binding activities of the recombinant anti-CD98 chimeric mAbs were measured against both recombinant CD98 extracellular domain proteins (ECDs) and CD98-expressing cells. Briefly, binding kinetics of anti-CD98 chimera mAbs for human and cynomolgus CD98 ECDs were determined by surface plasmon resonance-based measurements as described in Example 4. Table 10 reported the association and dissociation rate constants for CD98 binding, ka (M^−1 s^−1) and kd (s^−1), and the equilibrium dissociation constant KD (M) of the interaction between antibodies and the target antigen. Binding of anti-CD98 chimera mAbs for CD98 on cell surface was evaluated by flow cytometry against CHO-K1 cell line stably transfected to express human CD98 and 3T12 cell line stably transfected to express cynomolgus monkey CD98.
(§3) The binding kinetics of the recombinant anti-CD98 chimeric antibodies for purified recombinant CD98 protein (extracellular domain, ECD) were determined by surface plasmon resonance-based measurements, as described in the Example 4.
Background: Surface plasmon resonance follows binding to a sensor surface in real time, without labels.
In turn, B1 registered a ka of 26000 M⁻¹ s⁻¹ and a kd of 2.6e-05 s⁻¹.

As for B2, the ka amounted to 20000 M⁻¹ s⁻¹ and the kd is 5e-05 s⁻¹.

Turning to B3, the ka is 14000 M⁻¹ s⁻¹ and the kd was 0.00049 s⁻¹.

In turn, B4 had a ka of 18000 M⁻¹ s⁻¹ and a kd of 0.00014 s⁻¹.

B5 yielded a ka of 21000 M⁻¹ s⁻¹ and a kd of 4.8e-05 s⁻¹.

B6: the ka turned out to be 14000 M⁻¹ s⁻¹ and the kd came to 0.00043 s⁻¹.

B7 came in with a ka of 17000 M⁻¹ s⁻¹ and a kd of 0.00018 s⁻¹.

The target in another series is T2, human CD98 ECD (Homo sapiens, UniProt P08195).
T2 construct: Human CD98 ECD with C-terminal His-tag
T2 sequence (P08195 with tags, fused parts or gaps): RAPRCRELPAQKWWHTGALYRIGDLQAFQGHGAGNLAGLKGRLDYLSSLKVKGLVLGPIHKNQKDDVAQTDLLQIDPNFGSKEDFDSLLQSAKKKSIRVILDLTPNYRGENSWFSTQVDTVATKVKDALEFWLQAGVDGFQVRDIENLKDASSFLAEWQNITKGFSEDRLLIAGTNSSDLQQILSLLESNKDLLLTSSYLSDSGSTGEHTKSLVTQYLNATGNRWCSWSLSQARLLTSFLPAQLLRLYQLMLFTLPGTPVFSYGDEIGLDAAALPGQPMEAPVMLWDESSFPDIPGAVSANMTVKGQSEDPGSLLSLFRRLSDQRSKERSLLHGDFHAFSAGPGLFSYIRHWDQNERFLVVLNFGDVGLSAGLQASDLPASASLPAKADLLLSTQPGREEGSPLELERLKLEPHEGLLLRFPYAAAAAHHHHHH
Described as above. The conditions noted are these: huCD98 ECD. On the procedure:
as §1, §2, §3
On to B1, for which the ka turned out to be 53000 M⁻¹ s⁻¹ and the kd stood at 2.3e-05 s⁻¹.

B2 gave a ka of 35000 M⁻¹ s⁻¹ and a kd of 2.8e-05 s⁻¹.

Molecule B3 had a ka of 38000 M⁻¹ s⁻¹ and a kd of 0.00026 s⁻¹.

Molecule B4 returned a ka of 44000 M⁻¹ s⁻¹ and a kd of 8.5e-05 s⁻¹.

In the case of B5, the ka is 42000 M⁻¹ s⁻¹ and the kd was found to be 4.6e-05 s⁻¹.

Consider B6, for which the ka turned out to be 35000 M⁻¹ s⁻¹ and the kd stood at 0.00021 s⁻¹.

Regarding B7, the ka turned out to be 41000 M⁻¹ s⁻¹ and the kd was determined as 0.00013 s⁻¹.

Tested on in a further series: not listed separately
Put plainly: Conjugation of anti-CD98 mAbs with Bcl-xL inhibitor synthons (precipitation, DAR, recovery, aggregation). The conditions noted are these: mAb conjugated with Bcl-xL inhibitor synthon CZ, Method A. On the procedure:
Method A. A solution of BOND-BREAKER tris(2-carboxyethyl)phosphine (TCEP) solution (10 mM, 0.017 mL) was added to a solution of antibody (10 mg/mL, […]) preheated to 37° C. The reaction mixture was kept at 37° C. for 1 hour. The solution of reduced antibody was added to a solution of synthon (3.3 mM, 0.160 mL in DMSO) and gently mixed for 30 minutes. The reaction solution was loaded onto a desalting column (PD10, washed with DPBS 3x before use), followed by DPBS (1.6 mL) and eluted with additional DPBS (3 mL). The purified ADC solution was filtered through a 0.2 micron, low protein-binding 13 mm syringe-filter and stored at 4° C.
Method E. A solution of BOND-BREAKER tris(2-carboxyethyl)phosphine (TCEP) solution (10 mM, 0.017 mL) was added to the solution of antibody (10 mg/mL, 1 mL) at room temperature. The reaction mixture was heated to 37° C. for 75 minutes. The solution of reduced antibody cooled to room temperature and was added to a solution of synthon (10 mM, 0.040 mL in DMSO) followed by addition of boric buffer (0.1 mL, 1M, pH 8). The reaction solution was let to stand for 3 days at room temperature, loaded onto a desalting column (PD10, washed with DPBS 3×5 mL before use), followed by DPBS (1.6 mL) and eluted with additional DPBS (3 mL). The purified ADC solution was filtered through a 0.2 micron, low protein-binding 13 mm syringe-filter and stored at 4° C.
B1: the “Key observation for ADC solution during and after conjugation” value (shortened to “Key observation”) is reported as “Precipitated during conjugation; inefficient conjugation”.

Consider B2, for which the “DAR by MS” value came to 1.9; the “Key observation” value is given as “Precipitated during conjugation; inefficient conjugation”.

Consider B3, for which the “DAR by MS” value was 2.0; the “Key observation” value is reported as “Precipitated during conjugation; inefficient conjugation”.

B4: the “DAR by MS” value is on record as 1.2; the “Key observation” value was “Precipitated during conjugation; inefficient conjugation”.

On to B5, for which the “DAR by MS” value is given as 2.1; the “Key observation” value is “Precipitated during conjugation; inefficient conjugation”.

As for B6, the “DAR by MS” value turned out to be 2.2; the “Key observation” value is “Precipitated during conjugation; inefficient conjugation”.

Regarding B7, the “DAR by MS” value was determined as 1.0; the “Key observation” value is given as “Precipitated during conjugation; inefficient conjugation”.

The values are drawn from patent US20230120736A1, “ANTI-CD98 ANTIBODIES AND ANTIBODY DRUG CONJUGATES” (AbbVie Inc., priority 2016, published 2023).
